In patent publication US20250066499A1 (SUNSHINE GUOJIAN PHARMACEUTICAL SHANGHAI, published 2025):

What was measured:
CD73-ND-E143A = target: T1, CD73-ND-E143A (human, UniProt P21589 27-317); experiment: ELISA; decline multiple of EC50 against CD73-ND
T1 construct: Alanine mutant of CD73-ND
T1 sequence: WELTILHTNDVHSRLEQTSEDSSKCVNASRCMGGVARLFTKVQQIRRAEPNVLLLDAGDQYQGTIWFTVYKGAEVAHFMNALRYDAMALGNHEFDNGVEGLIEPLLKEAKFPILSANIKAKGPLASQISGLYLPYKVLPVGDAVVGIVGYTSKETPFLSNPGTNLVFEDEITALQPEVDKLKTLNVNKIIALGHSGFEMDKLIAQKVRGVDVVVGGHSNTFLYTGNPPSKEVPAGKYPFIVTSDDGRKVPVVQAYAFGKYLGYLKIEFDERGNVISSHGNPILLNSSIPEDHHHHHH
Description: (§1) The ELISA plates were coated with SA protein diluted to 1.5 μg/mL in coating buffer (50 mM carbonate coating buffer, pH 9.6) and incubated overnight at 4° C. The supernatant was discarded, and the plates were washed three times with PBST. Then, 5% skimmed milk powder prepared with PBS was added for blocking and the plates were incubated for 2 h at 37° C. After washing the plates once with PBST, CD73-biotin protein (prepared by biotinylating CD73-His protein according to the EZ-Link NHS-Biotin Reagent instructions) was diluted to 0.5 μg/mL and added at 100 μL/well for incubation at room temperature for 1 h. The plates were washed three times with PBST, and the prepared murine-derived monoclonal antibodies against human CD73 were serially diluted with 1% BSA buffer prepared with PBST and added to the ELISA plates at 100 μl/well. The plates were incubated at 37° C. for 1 h. After washing the plates three times with PBST, HRP-labeled goat anti-mouse IgG secondary antibody was added and the plates were incubated for 30 min at 37° C. After washing the plates three times with PBST, the residual droplets were patted dry on absorbent paper as much as possible. Then, 100 μl of TMB color developing solution was added to each well, and the plates were incubated in the dark at room temperature for 5 min for color development. Subsequently, 50 μl of 2M H₂SO₄ stop solution was added to each well to terminate the substrate reaction. The OD values were read at 450 nm using a multimode microplate reader to analyze the binding ability of the tested antibodies to the target antigen human CD73-His.
(§2) Referring to the experimental method in Example 3, the affinity of 48A11-HuV33 for various mutant proteins of CD73-ND was determined. The SA protein was diluted to 1 μg/mL for coating the ELISA plates, and the biotinylated CD73 protein (CD73-biotin) was used at a concentration of 0.1 μg/mL.

CD73-ND-his [1] = target: T2, CD73-ND-his (human, UniProt P21589 27-317); experiment: ELISA; decline multiple of EC50 against CD73-ND
T2 construct: Biotinylated and captured on streptavidin in the ELISA
T2 sequence: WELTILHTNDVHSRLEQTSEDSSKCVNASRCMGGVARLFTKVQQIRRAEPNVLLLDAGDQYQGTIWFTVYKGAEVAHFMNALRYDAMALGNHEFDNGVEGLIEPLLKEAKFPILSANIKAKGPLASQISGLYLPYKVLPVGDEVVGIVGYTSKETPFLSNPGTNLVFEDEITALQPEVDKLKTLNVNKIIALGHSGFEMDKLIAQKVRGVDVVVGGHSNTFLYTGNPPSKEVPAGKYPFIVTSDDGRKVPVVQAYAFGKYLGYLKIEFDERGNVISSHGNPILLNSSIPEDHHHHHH
Description: as §1, §2

CD73-ND-L133A = target: T3, CD73-ND-L133A (human, UniProt P21589 27-317); experiment: ELISA; decline multiple of Top against CD73-ND
T3 construct: Alanine mutant of CD73-ND
T3 sequence: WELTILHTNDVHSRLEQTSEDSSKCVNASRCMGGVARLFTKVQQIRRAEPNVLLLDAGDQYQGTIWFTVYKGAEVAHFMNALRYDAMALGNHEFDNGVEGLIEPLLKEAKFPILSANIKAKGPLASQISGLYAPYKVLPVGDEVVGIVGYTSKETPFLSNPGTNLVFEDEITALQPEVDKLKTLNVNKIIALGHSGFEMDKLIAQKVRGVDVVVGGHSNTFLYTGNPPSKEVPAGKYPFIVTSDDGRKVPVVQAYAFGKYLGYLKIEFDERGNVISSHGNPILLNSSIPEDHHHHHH
Description: as §1, §2

CD73-ND-V137A = target: T4, CD73-ND-V137A (human, UniProt P21589 27-317); experiment: ELISA; decline multiple of Top against CD73-ND
T4 construct: Alanine mutant of CD73-ND
T4 sequence: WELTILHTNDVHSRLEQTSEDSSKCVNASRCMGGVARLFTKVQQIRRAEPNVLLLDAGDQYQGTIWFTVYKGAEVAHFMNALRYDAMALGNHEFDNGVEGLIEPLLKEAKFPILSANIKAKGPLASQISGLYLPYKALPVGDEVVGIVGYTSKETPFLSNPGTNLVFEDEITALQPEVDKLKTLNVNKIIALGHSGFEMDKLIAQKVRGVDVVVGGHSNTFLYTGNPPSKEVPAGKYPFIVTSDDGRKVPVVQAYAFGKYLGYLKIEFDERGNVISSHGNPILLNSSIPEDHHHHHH
Description: as §1, §2

CD73-ND-Y135A = target: T5, CD73-ND-Y135A (human, UniProt P21589 27-317); experiment: ELISA; decline multiple of Top against CD73-ND
T5 construct: Alanine mutant of CD73-ND
T5 sequence: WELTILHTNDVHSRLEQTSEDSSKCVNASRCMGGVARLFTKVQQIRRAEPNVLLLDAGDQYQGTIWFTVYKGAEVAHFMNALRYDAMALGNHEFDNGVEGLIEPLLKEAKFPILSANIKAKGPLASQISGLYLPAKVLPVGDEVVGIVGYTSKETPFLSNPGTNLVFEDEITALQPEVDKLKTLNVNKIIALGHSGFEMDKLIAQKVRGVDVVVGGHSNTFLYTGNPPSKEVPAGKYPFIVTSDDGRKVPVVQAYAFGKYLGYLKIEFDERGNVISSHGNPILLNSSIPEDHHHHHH
Description: as §1, §2

CD73-ND-P134A = target: T6, CD73-ND-P134A (human, UniProt P21589 27-317); experiment: ELISA; decline multiple of Top against CD73-ND
T6 construct: Alanine mutant of CD73-ND
T6 sequence: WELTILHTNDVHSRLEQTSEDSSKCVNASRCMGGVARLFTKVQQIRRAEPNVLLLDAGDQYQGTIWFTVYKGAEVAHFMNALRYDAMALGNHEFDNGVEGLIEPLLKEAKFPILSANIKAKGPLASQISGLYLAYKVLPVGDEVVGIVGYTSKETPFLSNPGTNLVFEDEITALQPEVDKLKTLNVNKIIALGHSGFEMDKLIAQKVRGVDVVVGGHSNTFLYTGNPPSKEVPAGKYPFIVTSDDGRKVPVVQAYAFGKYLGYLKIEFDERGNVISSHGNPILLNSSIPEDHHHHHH
Description: as §1, §2

CD73-ND-his [2] = target: T2, CD73-ND-his; experiment: ELISA as in Example 3, antigen CD73-ND-his, antibody titrated, absorbance 450 nm

B1: 48A11-HuV33 (antibody, human IgG4, V domains shown)
VH: QVQLVQSGAEVKKPGASVKVSCKASGYTFTSYWMHWVRQAPGQGLEWIGEINPSIGRTNYNEKFKSRVTLTRDTSTSTAYMELSSLRSEDTAVYYCARRVYGTMDYWGQGTLVTVSS
VL: DIQMTQSPSSLSASVGDRVTITCKASQDINSYLSWFQQKPGKSPKLLIYRANIWVDGVPSRFSGSGSGQDYTFTISSLQPEDIATYYCLQYDELYTFGQGTKVEIK
notes: Humanized
B1 was tested, and the “Ratio(EC50)” value (CD73-ND-E143A) was 1.4 fold, the “Ratio(EC50)” value (CD73-ND-his [1]) was 1 fold and the “Ratio(Top)” value (CD73-ND-L133A) was 2.3 fold. For the same binder, the “Ratio(Top)” value (CD73-ND-V137A) was 1.3 fold, the “Ratio(Top)” value (CD73-ND-Y135A) was 1.1 fold and the “Ratio(Top)” value (CD73-ND-P134A) was 1.1 fold. The “EC50 (read off the curve)” value (CD73-ND-his [2]) was roughly 0.04 nM.
